For this data set, the system named is T1, Nc1ncnc2c1ncn2[C@@H]1O[C@H](COP(=O)(O)OP(=O)(O)OP(=O)(O)O)[C@@H](O)[C@H]1O.
T1 construct: holo V/A-ATPase (A3B3D1F1 + E2G2d1a1c12), C-terminal His3 tag on each c subunit, purified from T. thermophilus membranes, nucleotide removed by EDTA/phosphate dialysis, MSP1E3D1/DMPC nanodiscs; models cover V1EG; with V-type ATP synthase subunit D; V-type ATP synthase subunit F; V-type ATP synthase subunit E; V-type ATP synthase subunit G; V-type ATP synthase subunit C; V-type ATP synthase subunit I; V-type ATP synthase subunit K
As to the kind of experiment: purified protein. The data set is classed as biochemical, Thermus thermophilus. The note with it: nanodisc enzyme, ATP-Mg, 50 mM Tris-HCl pH 8.0, 100 mM KCl, 25 °C, ATP-regenerating system, all rows carry A/S232A, A/T235S.

Our source for the Km and kcat values is PMC8904598, “Structural snapshots of V/A-ATPase reveal the rotary catalytic mechanism of rotary ATPases” (Nature Communications, 2022).

For the substance “Tth V/A-ATPase (A/S232A, T235S; TSSA mutant), nanodisc-incorporated, nucleotide-free (Thermus thermophilus HB8; Q56403:S232A/Q56403:T235S)”, the Km (usually the concentration of substrate that gives half-maximal velocity) was 394 µM; the kcat (as a rule, the number of substrate molecules converted per active site and unit of time at saturation) was found to be 22 s⁻¹.
